The values below come from paper PMC10014064.

Assay [1] addresses amyloid precursor protein (APP), mouse (mouse (endogenous in C57BL/6 hippocampus)).
Assay [2] has the same target. This is another data set of the same source.

In assay [1], “GluN2B subunit of the NMDA receptor, mouse (from UniProt Q01097 27-1482)” came in with an effect of ifenprodil (5 μM, GluN2B antagonist) on NMDAR EPSCs in infant neurons previously incubated with the Y188 antibody against the APP C-terminal, versus the control condition of 19.8%. Moreover, in assay [2], the reduction in NMDAR EPSCs in CA1 pyramidal neurons of infant mice with the APP C-terminal antibody Y188 (2.5 nM) in the recording pipette, compared with boiled Y188 amounted to 21.1%.
